Experimental data: US20220056091A1 (BRIGHT PEAK THERAPEUTICS, published 2022)

Legend:
Fc fused human IL-18Rα = target: T1, Fc fused human IL-18Rα (human, UniProt Q13478 19-329, limits assumed); experiment: SPR, Fc-IL-18Rα captured, 1:1 model
T1 construct: also called IL-18Rα monomer; IL-18 receptor alpha; not shown: Fc part
T1 sequence (looked up): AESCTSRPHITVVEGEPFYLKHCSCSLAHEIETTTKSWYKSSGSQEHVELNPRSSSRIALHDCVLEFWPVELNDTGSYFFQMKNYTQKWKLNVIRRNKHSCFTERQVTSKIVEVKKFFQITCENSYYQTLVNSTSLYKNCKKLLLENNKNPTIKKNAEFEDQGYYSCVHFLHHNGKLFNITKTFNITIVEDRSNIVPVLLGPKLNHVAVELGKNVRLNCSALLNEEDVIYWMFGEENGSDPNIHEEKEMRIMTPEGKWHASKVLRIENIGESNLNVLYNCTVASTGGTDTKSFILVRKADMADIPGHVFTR
Experimental: (§1) The interaction of the wild type and of modified IL-18 polypeptides with human IL-18 receptor subunits were measured with Surface Plasmon Resonance (SPR) technology. Anti-human IgG antibodies were bound by amine coupling onto a CM5 chip to capture 6 μg/mL of Fc fused human IL-18Rα, 6 μg/mL of Fc fused human IL-18Rβ, or 2 μg/mL of Fc fused human IL-18BP isoform a (IL-18BPa) for 30 min before capture. In other settings, 6 μg/mL of alpha and beta IL-18 receptors were mixed and pre-incubated for 30 min before capture of the alpha/beta heterodimer IL-18 receptor.
(§2) The kinetic binding of the IL-18 analytes were measured with a Biacore 8K instrument in two-fold serial dilutions starting at 1 μM down to 0.98 nM. Regeneration of the surface back to amine coupled anti IgG antibody was done after every concentration of analyte. To measure the protein association to the receptors, the samples were injected with a flow rate of 50 μL/min for 60 s, followed by 300 s buffer only to detect the dissociation. The used running buffer was 1×PBS with 0.05% Tween20. The relative response units (RU, Y-axis) are plotted against time (s, X-axis) and analyzed in a kinetic 1:1 binding model for the monomer receptor binding and for the binding to the IL-18BP. A kinetic heterogenous ligand fit model was applied for the alpha/beta heterodimer binding.
Modified IL-18 polypeptides having sequence modifications E06K, K53A, S55A, and T63A maintained binding affinity to IL-18Rα.

[1] = target: T2, IL-18Rα/β heterodimer (Fc fused human IL-18Rα mixed and pre-incubated with Fc fused human IL-18Rβ) (human, UniProt Q13478 19-329; O95256 20-356, limits assumed); experiment: SPR, Fc-IL-18Rα/Fc-IL-18Rβ mix captured, heterogeneous ligand model
T2 construct: 6 µg/mL of each receptor mixed and pre-incubated 30 min before capture on anti-human IgG; also called alpha/beta heterodimer IL-18 receptor; not shown: Fc part
T2 sequence (looked up) 1: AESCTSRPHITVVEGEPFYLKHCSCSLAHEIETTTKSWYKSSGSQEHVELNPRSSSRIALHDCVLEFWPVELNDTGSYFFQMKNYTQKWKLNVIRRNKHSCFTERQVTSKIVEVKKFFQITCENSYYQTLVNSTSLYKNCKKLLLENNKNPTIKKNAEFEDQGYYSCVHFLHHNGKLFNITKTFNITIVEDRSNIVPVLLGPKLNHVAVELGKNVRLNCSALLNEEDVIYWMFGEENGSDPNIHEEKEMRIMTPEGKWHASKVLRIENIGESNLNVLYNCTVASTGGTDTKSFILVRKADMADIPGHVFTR
T2 sequence (looked up) 2: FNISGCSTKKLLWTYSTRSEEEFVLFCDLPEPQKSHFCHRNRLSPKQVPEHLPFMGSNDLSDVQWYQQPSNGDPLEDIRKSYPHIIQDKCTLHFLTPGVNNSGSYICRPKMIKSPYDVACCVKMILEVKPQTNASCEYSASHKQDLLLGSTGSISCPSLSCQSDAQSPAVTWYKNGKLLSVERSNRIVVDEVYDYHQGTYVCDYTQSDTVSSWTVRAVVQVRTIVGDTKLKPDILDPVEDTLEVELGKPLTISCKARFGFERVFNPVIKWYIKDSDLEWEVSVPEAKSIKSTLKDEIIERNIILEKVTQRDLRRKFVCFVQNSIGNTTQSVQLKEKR
Experimental: as §1, §2
Modified IL-18 polypeptides bearing sequence modifications E06K, K53A, S55A, and T63A maintained binding affinity to IL-18Rα/β heterodimer.

[2] = target: T3, Fc fused human IL-18BP isoform a (IL-18BPa) (human, UniProt O95998 31-194); experiment: SPR, Fc-IL-18BPa captured, 1:1 model
T3 construct: also called IL-18BP monomer; not shown: Fc part
T3 sequence (looked up): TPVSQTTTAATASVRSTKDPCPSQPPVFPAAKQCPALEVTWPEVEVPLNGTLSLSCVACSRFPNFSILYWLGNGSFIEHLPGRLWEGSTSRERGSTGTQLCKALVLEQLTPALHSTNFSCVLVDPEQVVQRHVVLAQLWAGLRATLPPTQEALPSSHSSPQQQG
Experimental: as §1, §2
Modified IL-18 polypeptides bearing sequence modifications K53A, S55A, E06K, C38S, C68S, C76S, C127S, and/or K70C maintained binding affinity to IL-18BP.

[3] = target: IL-18R on HEK-Blue IL18R reporter cells (InvivoGen, #hkb-hmil18); experiment: cell-based or functional assay

Binder	Kd (Fc fused human IL-18Rα)	Kd [1]	koff (Fc fused human IL-18Rα)	kon (Fc fused human IL-18Rα)	Kd [2]	koff [2]	kon [2]	EC50 (pM), HEK-Blue IL18R reporter assay [3]	Potency loss Mutant/NWT, HEK-Blue IL18R reporter assay [3]	koff [1]	kon [1]
Modified IL-18 polypeptide of SEQ ID NO: 3 (Y01G, F02A, E06K, M51G, K53A, D54A, S55A, T63A) (ligand) GAGKLKSKLSVIRNLNDQVLFIDQGNRPLFEDMTDSDCRDNAPRTIFIISGYAAAQPRGMAVAISVKCEKISTLSCENKIISFKEMNPPDNIKDTKSDIIFFQRSVPGHDNKMQFESSSYEGYFLACEKERDLFKLILKKEDELGDRSIMFTVQNED	> 1000 nM	> 1000 nM	–	–	–	–	–	–	–	–	–
Modified IL-18 polypeptide of SEQ ID NO: 18 (E06K, K53A, T63A) (ligand) YFGKLKSKLSVIRNLNDQVLFIDQGNRPLFEDMTDSDCRDNAPRTIFIISMYADSQPRGMAVAISVKCEKISTLSCENKIISFKEMNPPDNIKDTKSDIIFFQRSVPGHDNKMQFESSSYEGYFLACEKERDLFKLILKKEDELGDRSIMFTVQNED	38 nM	7.01 nM	0.00573 s⁻¹	151000 M⁻¹ s⁻¹	10.4 nM	0.00291 s⁻¹	279000 M⁻¹ s⁻¹	1.77 pM	0.53 fold	0.000955 s⁻¹	136000 M⁻¹ s⁻¹
Modified IL-18 polypeptide of SEQ ID NO: 14 (E06K, K53A, S55A, M51G) (ligand) YFGKLKSKLSVIRNLNDQVLFIDQGNRPLFEDMTDSDCRDNAPRTIFIISGYADAQPRGMAVTISVKCEKISTLSCENKIISFKEMNPPDNIKDTKSDIIFFQRSVPGHDNKMQFESSSYEGYFLACEKERDLFKLILKKEDELGDRSIMFTVQNED	> 1000 nM	–	–	–	> 1000 nM	–	–	–	–	–	–
Modified IL-18 polypeptide of SEQ ID NO: 15 (C38S, C68S, C76S, C127S) (ligand) YFGKLESKLSVIRNLNDQVLFIDQGNRPLFEDMTDSDSRDNAPRTIFIISMYKDSQPRGMAVTISVKSEKISTLSSENKIISFKEMNPPDNIKDTKSDIIFFQRSVPGHDNKMQFESSSYEGYFLASEKERDLFKLILKKEDELGDRSIMFTVQNED	231 nM	315 nM	0.0179 s⁻¹	77500 M⁻¹ s⁻¹	0.199 nM	0.000253 s⁻¹	1.27e+06 M⁻¹ s⁻¹	–	–	0.022 s⁻¹	69800 M⁻¹ s⁻¹
Modified IL-18 polypeptide of SEQ ID NO: 12 (E06K, K53A, S55A, F02A) (ligand) YAGKLKSKLSVIRNLNDQVLFIDQGNRPLFEDMTDSDCRDNAPRTIFIISMYADAQPRGMAVTISVKCEKISTLSCENKIISFKEMNPPDNIKDTKSDIIFFQRSVPGHDNKMQFESSSYEGYFLACEKERDLFKLILKKEDELGDRSIMFTVQNED	> 1000 nM	> 1000 nM	–	–	> 1000 nM	–	–	–	–	–	–
Modified IL-18 polypeptide of SEQ ID NO: 22 (E06K, K53A, C38S, C68S, C76S, C127S, K70C) (ligand) YFGKLKSKLSVIRNLNDQVLFIDQGNRPLFEDMTDSDSRDNAPRTIFIISMYADSQPRGMAVTISVKSECISTLSSENKIISFKEMNPPDNIKDTKSDIIFFQRSVPGHDNKMQFESSSYEGYFLASEKERDLFKLILKKEDELGDRSIMFTVQNED	2210 nM	48.2 nM	0.0199 s⁻¹	8970 M⁻¹ s⁻¹	23.2 nM	0.00235 s⁻¹	101000 M⁻¹ s⁻¹	9.12 pM	2.74 fold	0.000761 s⁻¹	15800 M⁻¹ s⁻¹
